Experimental data: paper PMC3998512 (DNA repair, 2013)

What was measured:
GST tagged human Cdk1 = GST tagged human Cdk1 (human, UniProt P06493 1-297); experiment: far-Western, overlay or dot blot
His tagged human PCNA = His tagged human PCNA (human, UniProt P12004 1-261); experiment: far-Western, overlay or dot blot
Sequence of His tagged human PCNA (P12004 whole entry): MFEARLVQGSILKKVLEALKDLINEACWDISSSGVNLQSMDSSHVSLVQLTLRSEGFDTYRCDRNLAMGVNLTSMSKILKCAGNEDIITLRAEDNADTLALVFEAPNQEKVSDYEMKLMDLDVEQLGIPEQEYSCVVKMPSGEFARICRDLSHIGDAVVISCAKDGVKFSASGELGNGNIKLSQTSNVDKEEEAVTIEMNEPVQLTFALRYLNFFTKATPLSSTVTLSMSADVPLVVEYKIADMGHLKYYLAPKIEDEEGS

Sequence of GST tagged human Cdk1 (P06493 whole entry): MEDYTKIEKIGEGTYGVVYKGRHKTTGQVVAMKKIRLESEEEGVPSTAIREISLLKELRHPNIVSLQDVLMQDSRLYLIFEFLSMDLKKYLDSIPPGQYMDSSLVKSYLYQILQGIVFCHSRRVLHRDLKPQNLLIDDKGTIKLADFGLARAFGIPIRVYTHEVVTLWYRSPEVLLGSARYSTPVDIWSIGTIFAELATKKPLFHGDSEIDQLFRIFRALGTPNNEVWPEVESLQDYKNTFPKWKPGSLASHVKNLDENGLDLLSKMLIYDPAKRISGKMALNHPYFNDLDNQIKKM

| binding result (GST tagged human Cdk1) | binding result (His tagged human PCNA) | Binder |
| --- | --- | --- |
| binds | – | His tagged human Δ16mtSSB (mtSSB lacking 16 N-terminal amino acids) (natural protein, UniProt Q04837 17-148, looked up) ESETTTSLVLERSLNRVHLLGRVGQDPVLRQVEGKNPVTIFSLATNEMWRSGDSEVYQLGDVSQKTTWHRISVFRPGLRDVAYQYVKKGSRIYLEGKIDYGEYMDKNNVRRQATTIIADNIIFLSDQTKEKE |
| – | binds | human recombinant Δ80AAG (AAG lacking the first 80 amino acids) (domain or fragment, UniProt P29372 81-298, looked up) GHLTRLGLEFFDQPAVPLARAFLGQVLVRRLPNGTELRGRIVETEAYLGPEDEAAHSRGGRQTPRNRGMFMKPGTLYVYIIYGMYFCMNISSQGDGACVLLRALEPLEGLETMRQLRSTLRKGTASRVLKDRELCSGPSKLCQALAINKSFDQRDLAQDEAVWLERGPLEPSEPAVVAAARVGVGHAGEWARKPLRFYVRGSPWVSVVDRVAEQDTQA |
